Measurements published in the Human Domainome abundance scans (Beltran et al. 2025).
± gives the uncertainty stated by the source.

B1: RUN and FYVE domain-containing protein 1, residues 639 to 698; numbered along this chain, Q96T51 (parent)
chain: WLKDDEATHCRQCEKEFSISRRKHHCRNCGHIFCNTCSSNELALPSYPKPVRVCDSCHTL
B2: Integrator complex subunit 12, residues 155 to 213; numbered along this chain, Q96CB8 (parent)
chain: AMEMGLACVVCRQMMVASGNQLVECQECHNLYHRDCHKPQVTDKEANDPRLVWYCARCT

Variants of: B1
Assay: abundance fitness (aPCA) (normalised: wild type 0, dead -1); higher = more abundant; growth selection in yeast, the domain comes from the species named
Details: Homo sapiens

Variant	abundance fitness
K3N	-0.133 ± 0.052
K3D	-0.539 ± 0.097
K3F	-1.14 ± 0.16
K3I	-0.393 ± 0.09
K3C	-1.03 ± 0.12
K3H	-0.42 ± 0.089
K3V	-0.687 ± 0.06
K3S	-0.55 ± 0.057
K3R	-0.618 ± 0.055
K3Q	-0.664 ± 0.095
K3L	-0.607 ± 0.061
K3E	-0.475 ± 0.061
K3A	-0.602 ± 0.066
K3M	-0.431 ± 0.073
K3P	-0.906 ± 0.11
K3G	-0.515 ± 0.051
K3Y	-0.529 ± 0.081
L2H	-0.211 ± 0.095
L2G	-0.074 ± 0.12
L2W	-0.329 ± 0.066
L2M	-0.074 ± 0.065
L2P	-1.13 ± 0.17
L2T	-0.02 ± 0.066

Variant	abundance fitness
L2D	-0.006 ± 0.093
L2F	-0.061 ± 0.043
L2I	-0.104 ± 0.1
L2R	-0.393 ± 0.07
L2C	-0.327 ± 0.069
L2Q	-0.023 ± 0.076
L2A	0.01 ± 0.077
L2V	-0.044 ± 0.064
L2K	0.102 ± 0.071
L2Y	0.058 ± 0.057
D4K	-0.068 ± 0.06
D4C	-0.971 ± 0.17
D4F	-0.234 ± 0.058
D4I	-0.241 ± 0.058
D4G	-0.228 ± 0.056
D4Y	-0.18 ± 0.064
D4L	-0.298 ± 0.039
D4S	-0.158 ± 0.044
D4P	-0.494 ± 0.061
D4R	-0.22 ± 0.037
D4H	-0.192 ± 0.097
D4E	-0.156 ± 0.059
D4V	-0.351 ± 0.052

Variant	abundance fitness
D4N	-0.018 ± 0.044
D4T	-0.27 ± 0.05
D4A	-0.466 ± 0.069
D5C	-0.17 ± 0.069
D5E	-0.134 ± 0.056
D5A	-0.21 ± 0.055
W1S	0.121 ± 0.07
W1M	0.253 ± 0.057
W1G	0.131 ± 0.067
W1D	0.445 ± 0.13
W1N	0.251 ± 0.099
W1K	0.249 ± 0.1
W1R	-0.182 ± 0.077
W1C	0.094 ± 0.075
W1F	-0.106 ± 0.14
W1A	-0.014 ± 0.17
W1E	-0.138 ± 0.1
W1L	-0.05 ± 0.064
W1T	-0.286 ± 0.19
W1Y	0.311 ± 0.084
W1V	-0.005 ± 0.055

Variants of: B2
Assay: as above
Details: Homo sapiens

Variant	abundance fitness
R57G	0.051 ± 0.035
R57V	-0.074 ± 0.038
R57F	-0.234 ± 0.095
R57H	-0.046 ± 0.081
R57T	0.057 ± 0.056
R57S	-0.026 ± 0.043
R57C	-0.075 ± 0.068
R57P	-0.013 ± 0.048
R57I	-0.103 ± 0.086
R57K	-0.029 ± 0.047
R57A	-0.018 ± 0.039
R57M	-0.134 ± 0.046
R57Q	-0.034 ± 0.051
R57E	-0.013 ± 0.043
R57L	-0.122 ± 0.042
Y54Q	0.027 ± 0.065
Y54A	-0.093 ± 0.047
Y54W	-0.222 ± 0.063
Y54I	-0.113 ± 0.082
Y54T	0.067 ± 0.062
Y54R	0.116 ± 0.054
Y54H	0.119 ± 0.082
Y54S	0.04 ± 0.052
Y54E	-0.069 ± 0.047
Y54V	-0.068 ± 0.045

Variant	abundance fitness
Y54G	-0.187 ± 0.049
Y54L	0.026 ± 0.046
Y54N	0.007 ± 0.081
Y54P	-0.35 ± 0.059
A56C	-0.02 ± 0.075
A56N	-0.209 ± 0.11
A56T	-0.054 ± 0.05
A56S	-0.054 ± 0.047
A56E	-0.08 ± 0.043
A56M	-0.02 ± 0.055
A56R	-0.12 ± 0.041
A56F	-0.265 ± 0.069
A56D	-0.273 ± 0.064
A56G	-0.057 ± 0.039
A56W	-0.134 ± 0.05
A56V	-0.128 ± 0.036
A56Y	-0.136 ± 0.079
A56K	-0.169 ± 0.057
A56H	-0.031 ± 0.11
A56P	-0.185 ± 0.054
C58T	-0.918 ± 0.085
C58Y	-1.08 ± 0.12
C58N	-1.05 ± 0.18
C58M	-1.09 ± 0.13
C58V	-1.04 ± 0.091

Variant	abundance fitness
C58W	-1.26 ± 0.12
C58A	-0.869 ± 0.07
C58F	-1.11 ± 0.18
C58D	-0.8 ± 0.093
C58S	-1.1 ± 0.074
C58H	-0.287 ± 0.075
C58R	-0.929 ± 0.061
C58I	-1.39 ± 0.24
C58P	-0.762 ± 0.13
C58E	-0.906 ± 0.099
C58G	-0.851 ± 0.059
T59P	-0.142 ± 0.083
T59C	-0.25 ± 0.18
T59M	-0.237 ± 0.13
T59I	-0.103 ± 0.089
T59A	0.016 ± 0.074
T59D	-0.072 ± 0.17
T59R	-0.002 ± 0.055
T59E	0.098 ± 0.14
T59W	-0.387 ± 0.12
T59Y	-0.218 ± 0.21
T59L	-0.249 ± 0.068
T59G	-0.13 ± 0.082
T59V	-0.227 ± 0.12
T59F	-0.254 ± 0.14

Variant	abundance fitness
T59N	-0.205 ± 0.16
T59H	0.035 ± 0.077
T59S	0.045 ± 0.064
C55T	-1.16 ± 0.11
C55R	-0.774 ± 0.05
C55W	-1.11 ± 0.1
C55H	-0.938 ± 0.18
C55M	-1.11 ± 0.11
C55S	-0.897 ± 0.075
C55N	-0.615 ± 0.21
C55Y	-0.913 ± 0.13
C55E	-0.765 ± 0.067
C55G	-0.913 ± 0.06
C55A	-0.809 ± 0.066
C55Q	-1.01 ± 0.13
C55D	-0.507 ± 0.14
C55P	-0.891 ± 0.11
C55I	-1.09 ± 0.28
C55V	-1.08 ± 0.095
C55L	-1.09 ± 0.089
C55F	-1.05 ± 0.21
W53Y	-0.322 ± 0.16
W53R	-0.147 ± 0.05
W53T	-0.13 ± 0.071
W53V	-0.398 ± 0.064
